The source of these data is US20120202218A1 (MODPRO, published 2012).

Data set [1] concerns the molecule itself. Briefly: Zn2+-induced gold nanoparticle aggregation (UV-vis, TEM).
Data set [2] concerns the target Human Carbonic Anhydrase II (human, UniProt P00918 2-260). Briefly: Zn2+-induced gold nanoparticle aggregation assay, particles with 0% KE2C-C6 (JR2EC only).

B1: JR2EC (peptide)
peptide: H-NAADLEKAIEALEKHLEAKGPCDAAQLEKQLEQAFEAFERAG-OH
modifications: also: Cys22 thiol bound to gold nanoparticle surface
notes: Synthetic Glu-rich 42-residue helix-loop-helix peptide; It dimerizes and folds into a four-helix bundle at pH<6, or at pH 7 with Zn2+; Immobilized on gold nanoparticles; also called aggregating polypeptide
As to B1, the figures for the binding result in data set [1] and in data set [2] were “binds” and “no binding (tested: 70 nM)”, respectively.
